Source: patent US20240254182A1 (PROVINCIAL HEALTH SERVICES AUTHORITY, published 2024)

Columns and labels:
[1] = target: T1, design 30 G-CSFR(Ig-CRH)E, tag cleaved (human, UniProt Q99062 26-331); experiment: SPR, WT G-CSF against design 30 G-CSFR(Ig-CRH)E, single-cycle kinetics
T1 construct: also called Design 30 G-CSFR(Ig-CRH)E mutant
T1 chain: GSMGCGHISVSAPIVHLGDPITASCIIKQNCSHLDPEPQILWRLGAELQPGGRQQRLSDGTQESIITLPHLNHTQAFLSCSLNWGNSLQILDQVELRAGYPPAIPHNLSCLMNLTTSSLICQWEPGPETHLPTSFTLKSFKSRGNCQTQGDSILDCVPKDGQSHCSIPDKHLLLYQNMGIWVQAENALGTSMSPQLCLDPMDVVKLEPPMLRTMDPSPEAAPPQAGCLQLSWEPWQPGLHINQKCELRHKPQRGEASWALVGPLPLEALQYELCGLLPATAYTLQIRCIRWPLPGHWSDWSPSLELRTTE

[2] = target: T2, design 35 G-CSFR(Ig-CRH)E, tag cleaved (human, UniProt Q99062 26-331); experiment: SPR, WT G-CSF against design 35 G-CSFR(Ig-CRH)E, single-cycle kinetics
T2 chain: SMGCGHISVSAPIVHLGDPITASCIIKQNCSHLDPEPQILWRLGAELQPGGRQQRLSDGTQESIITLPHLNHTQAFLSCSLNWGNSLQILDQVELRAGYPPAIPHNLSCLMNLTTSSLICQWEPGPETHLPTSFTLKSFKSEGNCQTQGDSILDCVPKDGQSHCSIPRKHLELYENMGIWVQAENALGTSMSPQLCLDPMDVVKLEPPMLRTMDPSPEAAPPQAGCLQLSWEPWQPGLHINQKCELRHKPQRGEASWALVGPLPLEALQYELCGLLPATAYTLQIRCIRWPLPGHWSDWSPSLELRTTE

[3] = target: T3, design 34 G-CSFR(Ig-CRH)E, tag cleaved (human, UniProt Q99062 26-331); experiment: SPR, WT G-CSF against design 34 G-CSFR(Ig-CRH)E; steady state derived affinity constant
T3 construct: also called Design 34 G-CSFR(Ig-CRH)E mutant
T3 chain: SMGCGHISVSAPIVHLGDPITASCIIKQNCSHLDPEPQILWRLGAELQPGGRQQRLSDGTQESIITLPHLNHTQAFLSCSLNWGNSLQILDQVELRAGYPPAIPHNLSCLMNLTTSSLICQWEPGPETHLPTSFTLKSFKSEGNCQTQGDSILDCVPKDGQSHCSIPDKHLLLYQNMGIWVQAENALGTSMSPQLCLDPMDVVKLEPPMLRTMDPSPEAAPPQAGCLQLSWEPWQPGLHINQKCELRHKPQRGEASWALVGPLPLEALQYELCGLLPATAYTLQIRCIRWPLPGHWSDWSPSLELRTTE

[4] = target: T4, WT G-CSFR(Ig-CRH), purified, tag cleaved (human, UniProt Q99062 26-331); experiment: SPR (Biacore T200), WT receptor amine-coupled, cytokine injected
T4 construct: also called G-CSFRWT; wild type G-CSFR(Ig-CRH)
T4 chain: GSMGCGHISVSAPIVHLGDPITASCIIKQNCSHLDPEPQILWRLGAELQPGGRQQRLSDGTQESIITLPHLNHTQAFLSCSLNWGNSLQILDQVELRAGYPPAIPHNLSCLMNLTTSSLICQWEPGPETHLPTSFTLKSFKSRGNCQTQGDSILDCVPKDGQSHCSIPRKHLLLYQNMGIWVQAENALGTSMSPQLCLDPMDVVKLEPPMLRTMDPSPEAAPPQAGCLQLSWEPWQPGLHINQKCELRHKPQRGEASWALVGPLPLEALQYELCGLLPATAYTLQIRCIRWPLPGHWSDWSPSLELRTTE
Experimental: (§1) The SPR binding assays were carried out on a Biacore T200 instrument (GE Healthcare, Mississauga, ON, Canada) with PBS-T (PBS+0.05% (v/v) Tween 20) running buffer at a temperature of 25° C. CM5 Series S sensor chip, Biacore amine coupling kit (NHS, EDC and 1 M ethanolamine), and 10 mM sodium acetate buffers were all purchased from GE Healthcare. PBS running buffer with 0.05% Tween20 (PBS-T) was purchased from Teknova Inc. (Hollister, CA). Designs were assessed in three different immobilization orientations.
(§2) To assess binding affinity of G-CSFE to G-CSFRWT, recombinant G-CSFRWT purified as described in Example 5 was captured as described above in this Example. Using single-cycle kinetics, six concentrations of a two-fold dilution series of each G-CSFE mutant starting at […] with a blank buffer control were sequentially injected as described above. The same sample titration was also performed on a reference cell with no variants captured. The G-CSFRWT surface was regenerated as described above.
(§3) Double-referenced sensorgrams from duplicate or triplicate repeat injections were analyzed using Biacore™ T200 Evaluation Software v3.0 and fit to the 1:1 Langmuir binding model.

[5] = target: T5, design 307 G-CSFR(Ig-CRH)E, tag cleaved (human, UniProt Q99062 26-331); experiment: SPR, G-CSFRE amine-coupled, G-CSFE injected; steady state derived affinity constant
T5 chain: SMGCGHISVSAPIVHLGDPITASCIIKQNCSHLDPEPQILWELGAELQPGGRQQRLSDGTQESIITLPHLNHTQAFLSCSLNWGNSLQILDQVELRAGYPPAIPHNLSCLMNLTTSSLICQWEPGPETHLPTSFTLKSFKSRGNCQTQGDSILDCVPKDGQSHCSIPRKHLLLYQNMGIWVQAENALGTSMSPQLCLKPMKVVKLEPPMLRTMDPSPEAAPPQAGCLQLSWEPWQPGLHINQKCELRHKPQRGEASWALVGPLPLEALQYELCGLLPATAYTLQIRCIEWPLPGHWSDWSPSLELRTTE
Experimental: (§4) To determine binding affinity of G-CSFE to G-CSFRE the G-CSFRE mutant was captured by standard amine coupling as described by the manufacturer (GE LifeSciences). Briefly, immediately after EDC/NHS activation, a 5 μg/mL solution of G-CSFRE in 10 mM NaOAc, pH 5.0, was injected at a flow rate of 5 μL/min until a receptor density of ˜700-900 RU was reached. The remaining active groups were quenched by a 420 s injection of 1 M ethanolamine hydrochloride-NaOH pH 8.5 at 10 μL/min. Using single-cycle kinetics, six concentrations of a two-fold dilution series of the corresponding G-CSFE mutant starting at 200 nM with a blank buffer control were sequentially injected at 25 μL/min for 300 s with a 1800 s dissociation phase, resulting in a set of sensorgrams with a buffer blank reference. The same sample titration was also performed on a reference cell with no variants captured. The chip was regenerated to prepare for the next injection cycle by one pulse of 10 mM glycine/HCl, pH 2.0, for 30 s at 30 μL/min.
as §3
Kinetic-derived affinity constants (KD) where obtained by fitting the association and dissociation phases of the curves. The KD of WT G-CSF for WT G-CSFR(Ig-CRH) ranged between 1.8-2.5E-9. For the cases in which the kinetic parameters could not be fit an attempt was made to derive a steady state affinity constant. In those cases, the KD fold change was calculated from the steady state derived KD for the WT G-CSF:WT G-CSFR(Ig-CRH) pair and is indicated in Table 7.

[6] = target: T2, design 35 G-CSFR(Ig-CRH)E, tag cleaved; experiment: SPR, G-CSFRE amine-coupled, G-CSFE injected, single-cycle kinetics
Experimental: as §1, §4, §3

[7] = target: T4, WT G-CSFR(Ig-CRH), purified, tag cleaved; experiment: SPR, WT G-CSFR(Ig-CRH) amine-coupled, G-CSFE injected, single-cycle kinetics
Experimental: as §1, §2

[8] = target: T3, design 34 G-CSFR(Ig-CRH)E, tag cleaved; experiment: SPR, G-CSFRE amine-coupled, G-CSFE injected, single-cycle kinetics
Experimental: as §1, §4, §3

[9] = target: T1, design 30 G-CSFR(Ig-CRH)E, tag cleaved; experiment: as above
Experimental: as §1, §4, §3

[10] = target: T6, design 304 G-CSFR(Ig-CRH)E, tag cleaved (human, UniProt Q99062 26-331); experiment: as above
T6 chain: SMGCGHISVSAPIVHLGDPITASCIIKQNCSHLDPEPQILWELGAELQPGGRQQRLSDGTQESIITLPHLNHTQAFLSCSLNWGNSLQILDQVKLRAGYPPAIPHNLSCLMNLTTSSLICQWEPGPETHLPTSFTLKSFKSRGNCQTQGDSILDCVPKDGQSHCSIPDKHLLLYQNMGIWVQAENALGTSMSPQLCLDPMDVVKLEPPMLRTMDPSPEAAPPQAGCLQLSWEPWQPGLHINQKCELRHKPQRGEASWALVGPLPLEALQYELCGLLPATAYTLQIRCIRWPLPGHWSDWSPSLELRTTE
Experimental: as §1, §4, §3

B1: WT G-CSF, purified from insect cells, tag cleaved (ligand)
chain: TPLGPASSLPQSFLLKCLEQVRKIQGDGAALQEKLCATYKLCHPEELVLLGHSLGIPWAPLSSCPSQALQLAGCLSQLHSGLFLYQGLLQALEGISPELGPTLDTLQLDVADFATTIWQQMEELGMAPALQPTQGAMPAFASAFQRRAGGVLVASHLQSFLEVSYRVLRHLAQAAAENLYFQ
notes: protein of the SPR; also called G-CSFWT; wild type G-CSF
- KD fold change (against WT:WT) [1]: 774 fold
- KD fold change (against WT:WT) [2]: 19 fold
- KD fold change (against WT:WT) [3]: 4260 fold

B2: design 307 G-CSFE, tag cleaved (ligand)
chain: TPLGPASSLPQEFLLDCLKQVRKIQGDGAALQEKLCATYKLCHPERLVLLGHSLGIPWAPLSSCPSQALQLAGCLSQLHSGLFLYQGLLQALEGISPELGPTLDTLQLDVADFATTIWQQMEELGMAPALQPTQGAMPAFASAFQRRAGGVLVASHLQSFLEVSYRVLRHLAQAAAENLYFQ
- binding result [4]: no binding
- KD fold change (against WT:WT) [5]: 0.6 fold

B3: design 35 G-CSFE, tag cleaved (ligand)
chain: TPLGPASSLPQSFLLKCLEQVRKIQGDGAALQEKLCATYKLCHPEELVLLGHSLGIPWAPLSSCPSQALQLAGCLSQLHSGLFLYQGLLQALEGISPELGPTLDTLQLDVADFAKTIWQQMRRLGMAPALQPTQGAMPAFASAFQRRAGGVLVASHLQSFLEVSYRVLRHLAQAAAENLYFQ
notes: also called design 35 G-CSFE mutant
- KD fold change (against WT:WT) [6]: 3.3 fold
- KD fold change (against WT:WT) [7]: 5 fold

B4: design 34 G-CSFE, tag cleaved (ligand)
chain: TPLGPASSLPQSFLLKCLEQVRKIQGDGAALQEKLCATYKLCHPEELVLLGHSLGIPWAPLSSCPSQALQLAGCLSQLHSGLFLYQGLLQALEGISPELGPTLDTLQKDVARFATTIWQQMRRLGMAPALQPTQGAMPAFASAFQRRAGGVLVASHLQSFLEVSYRVLRHLAQAAAENLYFQ
notes: also called design 34 G-CSFE mutant
- KD fold change (against WT:WT) [8]: 5 fold
- KD fold change (against WT:WT) [7]: 33 fold

B5: design 30 G-CSFE, tag cleaved (ligand)
chain: TPLGPASSLPQSFLLKCLEQVRKIQGDGAALQEKLCATYKLCHPEELVLLGHSLGIPWAPLSSCPSQALQLAGCLSQLHSGLFLYQGLLQALEGISPELGPTLDTLQKDVARFATTIWQQMEELGMAPALQPTQGAMPAFASAFQRRAGGVLVASHLQSFLEVSYRVLRHLAQAAAENLYFQ
notes: also called design 30 G-CSFE mutant
- KD fold change (against WT:WT) [9]: 11 fold
- KD fold change (against WT:WT) [7]: 20 fold

B6: design 304 G-CSFE, tag cleaved (ligand)
chain: TPLGPASSLPQSFLLKCLEQVRKIQGDGAALQEKLCATYKLCHPERLVLLGHSLGIPWAPLSSCPSQALQLAGCLSQLHSGLFLYQGLLQALEGISPELGPTLDTLQKDVARFATTIWQQMEELGMAPALQPTQGAMPAFASAFQREAGGVLVASHLQSFLEVSYRVLRHLAQAAAENLYFQ
- binding result [4]: no binding
- KD fold change (against WT:WT) [10]: 6.5 fold
